Reference: patent US20220298218A1 (ANTAG THERAPEUTICS, published 2022)

T1: human GIP receptor (human, UniProt P48546 22-466)
T1 sequence (looked up): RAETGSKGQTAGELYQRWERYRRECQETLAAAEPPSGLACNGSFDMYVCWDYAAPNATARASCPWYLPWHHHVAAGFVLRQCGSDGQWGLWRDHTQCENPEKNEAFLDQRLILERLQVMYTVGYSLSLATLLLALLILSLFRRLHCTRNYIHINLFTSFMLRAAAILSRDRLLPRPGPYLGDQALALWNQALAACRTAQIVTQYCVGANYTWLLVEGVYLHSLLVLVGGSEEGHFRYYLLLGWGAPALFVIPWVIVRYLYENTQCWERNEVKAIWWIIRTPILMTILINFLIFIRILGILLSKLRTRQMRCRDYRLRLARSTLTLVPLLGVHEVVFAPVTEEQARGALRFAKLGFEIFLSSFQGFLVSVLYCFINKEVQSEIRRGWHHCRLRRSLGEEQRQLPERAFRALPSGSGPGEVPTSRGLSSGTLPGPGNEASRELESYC

B1: AT461 (peptide)
peptide: TFISDYKIAMDKIHQQDFVNWLLAQKGKKNDWKHNI
HELM: PEPTIDE1{T.F.I.S.D.Y.K.I.A.M.D.K.I.H.Q.Q.D.F.V.N.W.L.L.A.Q.K.G.K.K.N.D.W.K.H.N.I}|PEPTIDE2{[O=C(O)CCCCCCCCCCCCCCC(=O)[*:2]].[gGlu]}$PEPTIDE1,PEPTIDE2,7:R3-2:R2$$$V2.0; N-terminus assumed
SMILES: CC[C@H](C)[C@H](NC(=O)[C@H](CC(N)=O)NC(=O)[C@H](Cc1c[nH]cn1)NC(=O)[C@H](CCCCN)NC(=O)[C@H](Cc1c[nH]c2ccccc12)NC(=O)[C@H](CC(=O)O)NC(=O)[C@H](CC(N)=O)NC(=O)[C@H](CCCCN)NC(=O)[C@H](CCCCN)NC(=O)CNC(=O)[C@H](CCCCN)NC(=O)[C@H](CCC(N)=O)NC(=O)[C@H](C)NC(=O)[C@H](CC(C)C)NC(=O)[C@H](CC(C)C)NC(=O)[C@H](Cc1c[nH]c2ccccc12)NC(=O)[C@H](CC(N)=O)NC(=O)[C@@H](NC(=O)[C@H](Cc1ccccc1)NC(=O)[C@H](CC(=O)O)NC(=O)[C@H](CCC(N)=O)NC(=O)[C@H](CCC(N)=O)NC(=O)[C@H](Cc1c[nH]cn1)NC(=O)[C@@H](NC(=O)[C@H](CCCCN)NC(=O)[C@H](CC(=O)O)NC(=O)[C@H](CCSC)NC(=O)[C@H](C)NC(=O)[C@@H](NC(=O)[C@H](CCCCNC(=O)CC[C@H](NC(=O)CCCCCCCCCCCCCCC(=O)O)C(=O)O)NC(=O)[C@H](Cc1ccc(O)cc1)NC(=O)[C@H](CC(=O)O)NC(=O)[C@H](CO)NC(=O)[C@@H](NC(=O)[C@H](Cc1ccccc1)NC(=O)[C@@H](N)[C@@H](C)O)[C@@H](C)CC)[C@@H](C)CC)[C@@H](C)CC)C(C)C)C(=O)O
B2: AT457 (peptide)
peptide: TFISDYKIAMDKIHQQDFVNWLLAQKGKKN
HELM: PEPTIDE1{T.F.I.S.D.Y.K.I.A.M.D.K.I.H.Q.Q.D.F.V.N.W.L.L.A.Q.K.G.K.K.N}|PEPTIDE2{[O=C(O)CCCCCCCCCCCCCCC(=O)[*:2]].[gGlu]}$PEPTIDE1,PEPTIDE2,7:R3-2:R2$$$V2.0; N-terminus assumed
SMILES: CC[C@H](C)[C@H](NC(=O)[C@H](CCCCNC(=O)CC[C@H](NC(=O)CCCCCCCCCCCCCCC(=O)O)C(=O)O)NC(=O)[C@H](Cc1ccc(O)cc1)NC(=O)[C@H](CC(=O)O)NC(=O)[C@H](CO)NC(=O)[C@@H](NC(=O)[C@H](Cc1ccccc1)NC(=O)[C@@H](N)[C@@H](C)O)[C@@H](C)CC)C(=O)N[C@@H](C)C(=O)N[C@@H](CCSC)C(=O)N[C@@H](CC(=O)O)C(=O)N[C@@H](CCCCN)C(=O)N[C@H](C(=O)N[C@@H](Cc1c[nH]cn1)C(=O)N[C@@H](CCC(N)=O)C(=O)N[C@@H](CCC(N)=O)C(=O)N[C@@H](CC(=O)O)C(=O)N[C@@H](Cc1ccccc1)C(=O)N[C@H](C(=O)N[C@@H](CC(N)=O)C(=O)N[C@@H](Cc1c[nH]c2ccccc12)C(=O)N[C@@H](CC(C)C)C(=O)N[C@@H](CC(C)C)C(=O)N[C@@H](C)C(=O)N[C@@H](CCC(N)=O)C(=O)N[C@@H](CCCCN)C(=O)NCC(=O)N[C@@H](CCCCN)C(=O)N[C@@H](CCCCN)C(=O)N[C@@H](CC(N)=O)C(=O)O)C(C)C)[C@@H](C)CC
B3: AT460 (peptide)
peptide: TFISDYKIAMDKIHQQDFVNWLLAQKGKKNDWKH
HELM: PEPTIDE1{T.F.I.S.D.Y.K.I.A.M.D.K.I.H.Q.Q.D.F.V.N.W.L.L.A.Q.K.G.K.K.N.D.W.K.H}|PEPTIDE2{[O=C(O)CCCCCCCCCCCCCCC(=O)[*:2]].[gGlu]}$PEPTIDE1,PEPTIDE2,7:R3-2:R2$$$V2.0; N-terminus assumed
SMILES: CC[C@H](C)[C@H](NC(=O)[C@H](CCCCNC(=O)CC[C@H](NC(=O)CCCCCCCCCCCCCCC(=O)O)C(=O)O)NC(=O)[C@H](Cc1ccc(O)cc1)NC(=O)[C@H](CC(=O)O)NC(=O)[C@H](CO)NC(=O)[C@@H](NC(=O)[C@H](Cc1ccccc1)NC(=O)[C@@H](N)[C@@H](C)O)[C@@H](C)CC)C(=O)N[C@@H](C)C(=O)N[C@@H](CCSC)C(=O)N[C@@H](CC(=O)O)C(=O)N[C@@H](CCCCN)C(=O)N[C@H](C(=O)N[C@@H](Cc1c[nH]cn1)C(=O)N[C@@H](CCC(N)=O)C(=O)N[C@@H](CCC(N)=O)C(=O)N[C@@H](CC(=O)O)C(=O)N[C@@H](Cc1ccccc1)C(=O)N[C@H](C(=O)N[C@@H](CC(N)=O)C(=O)N[C@@H](Cc1c[nH]c2ccccc12)C(=O)N[C@@H](CC(C)C)C(=O)N[C@@H](CC(C)C)C(=O)N[C@@H](C)C(=O)N[C@@H](CCC(N)=O)C(=O)N[C@@H](CCCCN)C(=O)NCC(=O)N[C@@H](CCCCN)C(=O)N[C@@H](CCCCN)C(=O)N[C@@H](CC(N)=O)C(=O)N[C@@H](CC(=O)O)C(=O)N[C@@H](Cc1c[nH]c2ccccc12)C(=O)N[C@@H](CCCCN)C(=O)N[C@@H](Cc1c[nH]cn1)C(=O)O)C(C)C)[C@@H](C)CC
B4: AT459 (peptide)
peptide: TFISDYKIAMDKIHQQDFVNWLLAQKGKKNDWK
HELM: PEPTIDE1{T.F.I.S.D.Y.K.I.A.M.D.K.I.H.Q.Q.D.F.V.N.W.L.L.A.Q.K.G.K.K.N.D.W.K}|PEPTIDE2{[O=C(O)CCCCCCCCCCCCCCC(=O)[*:2]].[gGlu]}$PEPTIDE1,PEPTIDE2,7:R3-2:R2$$$V2.0; N-terminus assumed
SMILES: CC[C@H](C)[C@H](NC(=O)[C@H](CCCCNC(=O)CC[C@H](NC(=O)CCCCCCCCCCCCCCC(=O)O)C(=O)O)NC(=O)[C@H](Cc1ccc(O)cc1)NC(=O)[C@H](CC(=O)O)NC(=O)[C@H](CO)NC(=O)[C@@H](NC(=O)[C@H](Cc1ccccc1)NC(=O)[C@@H](N)[C@@H](C)O)[C@@H](C)CC)C(=O)N[C@@H](C)C(=O)N[C@@H](CCSC)C(=O)N[C@@H](CC(=O)O)C(=O)N[C@@H](CCCCN)C(=O)N[C@H](C(=O)N[C@@H](Cc1c[nH]cn1)C(=O)N[C@@H](CCC(N)=O)C(=O)N[C@@H](CCC(N)=O)C(=O)N[C@@H](CC(=O)O)C(=O)N[C@@H](Cc1ccccc1)C(=O)N[C@H](C(=O)N[C@@H](CC(N)=O)C(=O)N[C@@H](Cc1c[nH]c2ccccc12)C(=O)N[C@@H](CC(C)C)C(=O)N[C@@H](CC(C)C)C(=O)N[C@@H](C)C(=O)N[C@@H](CCC(N)=O)C(=O)N[C@@H](CCCCN)C(=O)NCC(=O)N[C@@H](CCCCN)C(=O)N[C@@H](CCCCN)C(=O)N[C@@H](CC(N)=O)C(=O)N[C@@H](CC(=O)O)C(=O)N[C@@H](Cc1c[nH]c2ccccc12)C(=O)N[C@@H](CCCCN)C(=O)O)C(C)C)[C@@H](C)CC
B5: AT458 (peptide)
peptide: TFISDYKIAMDKIHQQDFVNWLLAQKGKKND
HELM: PEPTIDE1{T.F.I.S.D.Y.K.I.A.M.D.K.I.H.Q.Q.D.F.V.N.W.L.L.A.Q.K.G.K.K.N.D}|PEPTIDE2{[O=C(O)CCCCCCCCCCCCCCC(=O)[*:2]].[gGlu]}$PEPTIDE1,PEPTIDE2,7:R3-2:R2$$$V2.0; N-terminus assumed
SMILES: CC[C@H](C)[C@H](NC(=O)[C@H](CCCCNC(=O)CC[C@H](NC(=O)CCCCCCCCCCCCCCC(=O)O)C(=O)O)NC(=O)[C@H](Cc1ccc(O)cc1)NC(=O)[C@H](CC(=O)O)NC(=O)[C@H](CO)NC(=O)[C@@H](NC(=O)[C@H](Cc1ccccc1)NC(=O)[C@@H](N)[C@@H](C)O)[C@@H](C)CC)C(=O)N[C@@H](C)C(=O)N[C@@H](CCSC)C(=O)N[C@@H](CC(=O)O)C(=O)N[C@@H](CCCCN)C(=O)N[C@H](C(=O)N[C@@H](Cc1c[nH]cn1)C(=O)N[C@@H](CCC(N)=O)C(=O)N[C@@H](CCC(N)=O)C(=O)N[C@@H](CC(=O)O)C(=O)N[C@@H](Cc1ccccc1)C(=O)N[C@H](C(=O)N[C@@H](CC(N)=O)C(=O)N[C@@H](Cc1c[nH]c2ccccc12)C(=O)N[C@@H](CC(C)C)C(=O)N[C@@H](CC(C)C)C(=O)N[C@@H](C)C(=O)N[C@@H](CCC(N)=O)C(=O)N[C@@H](CCCCN)C(=O)NCC(=O)N[C@@H](CCCCN)C(=O)N[C@@H](CCCCN)C(=O)N[C@@H](CC(N)=O)C(=O)N[C@@H](CC(=O)O)C(=O)O)C(C)C)[C@@H](C)CC

Target: T1, human GIP receptor
Assay: cell-based or functional assay

Binder	cAMP antagonism [nM]	cAMP antagonism % inhib [%]	cAMP antagonism log [log M]
B1	23	100	-7.6
B2	14	100	-7.9
B3	40	100	-7.4
B4	31	88	-7.5
B5	38	100	-7.4
